Measured values reported in patent US10788489.

Key:
[1] = molecular target: anti-histidine-tag polyclonal antibody (Bethyl Laboratories, Inc., USA); experiment: competitive immunochromatography, 10 µg/mL FBA added; concentration read from the ATG-8 standard curve
[2] = molecular target: anti-histidine-tag polyclonal antibody (Bethyl Laboratories, Inc., USA); experiment: competitive immunochromatography, 30 µg/mL FBA added; concentration read from the ATG-8 standard curve
[3] = molecular target: anti-histidine-tag polyclonal antibody (Bethyl Laboratories, Inc., USA); experiment: competitive immunochromatography, 1.1 µg/mL FBA added; concentration read from the ATG-8 standard curve
[4] = molecular target: anti-histidine-tag polyclonal antibody (Bethyl Laboratories, Inc., USA); experiment: competitive immunochromatography, 3.3 µg/mL FBA added; concentration read from the ATG-8 standard curve
[5] = molecular target: anti-histidine-tag polyclonal antibody (Bethyl Laboratories, Inc., USA); experiment: competitive immunochromatography, 0.37 µg/mL FBA added; concentration read from the ATG-8 standard curve
[6] = molecular target: anti-histidine-tag polyclonal antibody (Bethyl Laboratories, Inc., USA); experiment: competitive immunochromatography, 10 µg/mL FBA added; calculated against added concentration, ATG-8 standard curve as reference
[7] = molecular target: anti-histidine-tag polyclonal antibody (Bethyl Laboratories, Inc., USA); experiment: competitive immunochromatography, 30 µg/mL FBA added; calculated against added concentration, ATG-8 standard curve as reference
[8] = molecular target: anti-histidine-tag polyclonal antibody (Bethyl Laboratories, Inc., USA); experiment: competitive immunochromatography, 1.1 µg/mL FBA added; calculated against added concentration, ATG-8 standard curve as reference
[9] = molecular target: anti-histidine-tag polyclonal antibody (Bethyl Laboratories, Inc., USA); experiment: competitive immunochromatography, 3.3 µg/mL FBA added; calculated against added concentration, ATG-8 standard curve as reference
[10] = molecular target: anti-histidine-tag polyclonal antibody (Bethyl Laboratories, Inc., USA); experiment: competitive immunochromatography, 0.37 µg/mL FBA added; calculated against added concentration, ATG-8 standard curve as reference

B1: fructose bisphosphate aldolase comprising histidine-tag (Cusabio, USA) (enzyme, UniProt P04075 2-364, looked up, species assumed)
Fructose-bisphosphate aldolase A: PYQYPALTPEQKKELSDIAHRIVAPGKGILAADESTGSIAKRLQSIGTENTEENRRFYRQLLLTADDRVNPCIGGVILFHETLYQKADDGRPFPQVIKSKGGVVGIKVDKGVVPLAGTNGETTTQGLDGLSERCAQYKKDGADFAKWRCVLKIGEHTPSALAIMENANVLARYASICQQNGIVPIVEPEILPDGDHDLKRCQYVTEKVLAAVYKALSDHHIYLEGTLLKPNMVTPGHACTQKFSHEEIAMATVTALRRTVPPAVTGITFLSGGQSEEEASINLNAINKCPLLKPWALTFSYGRALQASALKAWGGKKENLKAAQEEYVKRALANSLACQGKYTPSGQAGAAASESLFVSNHAY
modifications: His-tag
- Calculated concentration [1]: 1.81 µg/mL
- Calculated concentration [2]: 11.7 µg/mL
- Calculated concentration [3]: 0.14 µg/mL
- Calculated concentration [4]: 0.51 µg/mL
- Calculated concentration [5]: 0.056 µg/mL
- Recovery [6]: 0.18
- Recovery [7]: 0.39
- Recovery [8]: 0.13
- Recovery [9]: 0.15
- Recovery [10]: 0.15
